B1: HDV Ribozyme (parent)
chain: GGCCGGCAUGGUCCCAGCCUCCUCGCUGGCGCCGGCUGGGCAACAUUCCGAGGGGACCGUCCCCUCGGUAAUGGCGAAUGGGACCCA

Variants of: B1
Assay: self-cleavage, relative activity (ratio to wild type); higher = more cleavage; co-transcriptional

| Variant | self-cleavage |
| --- | --- |
| U47C C66U | 0.725 |
| U37A G50C | 0.0489 |
| A42G G52A | 0.483 |
| C33G U47A | 0.227 |
| U9C C61A | 1.03 |
| G29C G53U | 0.0723 |
| C19G A87U | 0.0839 |
| C3A G17A | 0.104 |
| A70U C75G | 0.231 |
| C4G U9G | 0.293 |
| C15U A87U | 0.993 |
| G31C C41A | 0.305 |
| G39C U46C | 0.214 |
| A16C C33G | 0.227 |
| G38U A78G | 0.203 |
| A16C A42G | 0.229 |
| C13A C48G | 0.138 |
| A16U G50C | 1.03 |
| C19U U37G | 0.0755 |
| A16G A45U | 0.712 |
| C49G C62U | 0.831 |
| C3G C62G | 0.169 |
| G6C C85U | 0.401 |
| A43G C64U | 0.657 |

| Variant | self-cleavage |
| --- | --- |
| A42U A71C | 0.342 |
| A45U C75G | 0.133 |
| G25C A42G | 0 |
| C24A G82U | 0.328 |
| U37C G73C | 0.356 |
| C44G G76C | 0.511 |
| G52C U69A | 1.21 |
| U9A G50U | 1.31 |
| C36U G82A | 0.327 |
| C30G C66A | 0.0282 |
| C21U A70C | 0.332 |
| G28U C41U | 0.0779 |
| C3A C4G | 0.0225 |
| C13G G81A | 0.0426 |
| C41A G74A | 0.692 |
| G28U G68C | 0.0733 |
| C4A C58U | 0.424 |
| C24A C85U | 0.594 |
| C62A G76A | 1.13 |
| G28A G29C | 0.0519 |
| G11C U60G | 0.256 |
| G17U G80C | 0.102 |
| U47G A56U | 1.11 |
| C24U G54C | 0.748 |

| Variant | self-cleavage |
| --- | --- |
| G74C A78G | 0.113 |
| C7G A83G | 0.17 |
| C14U C15A | 0.475 |
| G2A G50C | 0.205 |
| G6U C44A | 0.213 |
| C21U | 0.251 |
| U9A C85U | 0.906 |
| G28A G81C | 0.0674 |
| U65G A71G | 0.917 |
| C22A C64A | 0.107 |
| C14A G38U | 0.182 |
| C18U G28A | 0.0346 |
| C44A G68C | 0.764 |
| G11C G59C | 0.415 |
| G50A G55A | 0.783 |
| G35A G52C | 0.409 |
| C7U G74C | 0.325 |
| C15G C19A | 0.0831 |
| C49U A70G | 0.748 |
| C32A U60G | 0.138 |
| C44U A71U | 0.972 |
| C32G A87C | 0.0545 |
| U12A A16U | 0.32 |
| C21A G67C | 0.137 |

| Variant | self-cleavage |
| --- | --- |
| C15U G40U | 0.791 |
| G1C A45U | 0 |
| G40C U60G | 0.271 |
| C44G A51C | 0.447 |
| C15G A70U | 0.415 |
| G52C A77U | 0.731 |
| C24G C64U | 0.0886 |
| C21A C22A | 0.0898 |
| C36G A51U | 0.0519 |
| A70G A78G | 0.655 |
| G67C G82U | 0.185 |
| C4A A45U | 0.095 |
| G2U C22G | 0.0193 |
| U12A A56C | 0.262 |
| G34C U46C | 0.332 |
| G59U U69G | 1.14 |
| G5A C32U | 0.198 |
| A16U G54A | 0.795 |
| A8G G50U | 0.984 |
| C24U C62G | 0.341 |
| G40U G73A | 0.463 |
| C36G C44G | 0 |
| A71U A83C | 0.391 |
| G28U G59A | 0.0936 |

| Variant | self-cleavage |
| --- | --- |
| G10U U69C | 0.656 |
| C14G C57G | 0.782 |
| C18U C75G | 0.133 |
| U79A C84U | 0.314 |
| C14U U65G | 0.997 |
| G55C G81C | 0.141 |
| U23C C41U | 0.959 |
| G53U A70U | 0.739 |
| G17U C32U | 0.125 |
| G2U C36G | 0.185 |
| C26U G35C | 0.288 |
| C48U C75G | 0.0852 |
| C22G C26A | 0.156 |
| A42U G68C | 0.397 |
| C19A C64U | 0.128 |
| C48A G73U | 0.422 |
| G29A A51G | 0.366 |
| C62A U65G | 0.359 |
| U27C A78U | 0.297 |
| U79A G80C | 0.204 |
| U47G U72A | 0.831 |
| C3U | 0.802 |
| U12G G35C | 0.151 |
| U23A C86U | 0.872 |

| Variant | self-cleavage |
| --- | --- |
| U12A C30G | 0.131 |
| C36G C75G | 0.0773 |
| A42U C63U | 0.506 |
| C7U C21U | 0.0652 |
| U65C C75G | 0.482 |
| C41U A77U | 0.475 |
| C4U A43G | 0 |
| G10A G59A | 0.853 |
| U27C G76U | 0.883 |
| C30G G40C | 0.106 |
| G29U U65G | 0.0755 |
| G5U G68A | 0.697 |
| G1U G81C | 0.326 |
| G53A A83U | 0.521 |
| A8C G40A | 0.511 |
| G6A C66G | 0.456 |
| C62G U65G | 0.32 |
| A16U C48G | 1.2 |
| C13A U69A | 0.277 |
| C3A C85G | 0.623 |
| G55U A87U | 1.1 |
| A56G A83C | 0.0639 |
| A8C A71C | 0.308 |
| C4A G74U | 0.0583 |

| Variant | self-cleavage |
| --- | --- |
| A51C C58G | 1.02 |
| G31A U69C | 0.525 |
| C36G A56C | 0.158 |
| U23G C30U | 0.203 |
| U23G C61A | 0.743 |
| C30G U46C | 0.0831 |
| G28U C32G | 0.133 |
| G34U C36A | 0.106 |
| G10C U23G | 0.332 |
| C14A G52A | 0.567 |
| G17C G34A | 0.102 |
| C75A A77C | 0.237 |
| G54A C62U | 1.05 |
| G25U A51G | 0.266 |
| C18A A87G | 0.0811 |
| G35A C58A | 0.46 |
| G35C C48U | 0.271 |
| U69C A77C | 0.612 |
| G11A A43U | 0.198 |
| G10U A51G | 0.707 |
| C3G G31A | 0.0608 |
| G1C G53C | 0.332 |
| G39C G68A | 0.241 |

Source: the RNAGym collection of RNA variant scans (doi:10.7554/elife.80360)
